Target: Sc eIF4E (residues T25–L213), His6 tag removed (Saccharomyces cerevisiae) (UniProt P07260)
Assay: ITC

Sc eIF4E (residues T25–L213), His6 tag removed (Saccharomyces cerevisiae), sequence (P07260 25-213): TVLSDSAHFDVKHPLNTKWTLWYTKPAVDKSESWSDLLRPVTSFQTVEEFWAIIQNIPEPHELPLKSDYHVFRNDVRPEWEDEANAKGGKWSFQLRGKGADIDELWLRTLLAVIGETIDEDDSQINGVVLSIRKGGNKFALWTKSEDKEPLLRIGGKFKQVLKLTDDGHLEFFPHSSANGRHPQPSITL
Sc p20 canonical motif (C)-GB1 (domain or fragment), sequence (P12962 whole entry, the tested form may be a part): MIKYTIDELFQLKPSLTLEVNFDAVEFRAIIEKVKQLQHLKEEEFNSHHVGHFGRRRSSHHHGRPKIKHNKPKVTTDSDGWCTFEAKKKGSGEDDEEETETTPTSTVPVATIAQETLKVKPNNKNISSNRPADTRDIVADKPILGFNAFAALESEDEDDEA

| Substance | Kd [nM] |
| --- | --- |
| Sc eIF4G (residues V448–N500; C+L+NC)-GB1 (from UniProt P39935 448-500) (domain or fragment) | 70 |
| Sc eIF4G canonical motif (C)-GB1 (domain or fragment) | 2000 |
| Sc p20 canonical motif (C)-GB1 (domain or fragment) | 20 |

Source: article PMC6061780
